The series can be described thus: yeast display, Sf9 membrane polyspecificity reagent, FACS + sequencing; frameworks hold sequencing errors. A digest of the protocol: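 Nanobodies from a synthetic yeast display library (Saccharomyces cerevisiae BJ5465), induced 36–48 hours with galactose, were stained 1 hour at 4 °C with 10% biotinylated, detergent-solubilized Sf9 membrane reagent, enriched on streptavidin microbeads, then FACS-sorted. Anti-HA (expression) and streptavidin (reagent binding) fluorescence set low and high (top ~1%) gates. Polyreactivity labels come from the gate of origin. Genes were colony-PCR amplified, MiSeq 2 × 250 sequenced and filtered by CDR length.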
Regarding “QVQLVESGGGLVQAGGSLRLSCAASGSTFYGNAMGWYRQAPGKERELVAAISRGGGSTYYADSVKGRFTISRDNAKNTVYLQMNSLKPEDTAVYYCAATRYLHPWYYPYYYWGQGTQVTVSS”, the “polyreactivity (PSR sort gate)” value was “low polyreactivity”.
Next, “QVQLVESGGGLVQAGGSLRLSCAASGSTFYGNAMGWYRQAPGKERELVAAITWGDASTYYADSVKGRFTISRDNAKNTDYLQMNSLKPEDTAVYYCAVDESYGSSSDMDYWGQGTQVTVSS”: “low polyreactivity”.
Under “QVQLVESGGGLVQAGGSLRLSCAASGSTFYGNAMVWYIQAPGKERELVAAIRWRGGRTYYADSVKGRFTNSRDNAKYTVYLKLNSLIPEDTAVYDCNALPGVSDTQYDRVGYWGQGTQVTVSS” stands “high polyreactivity”; under “QVQLVESGGGLVQAGGSLRLSCAASGSTFYGNAMVWYRQAPGKERELVARITTSGSTYYADSVKGRFTISRDNAKNTVYLQMNSLKPEDTAVYYCAKRGYGPSIRYYYWGHGTQVTVSS”, “high polyreactivity”; under “QVQLVESGGGLVQAGGSLRLSCAASGSTFYGYAMGWYRQAPGKERELVAAISGGGSTNYADSVKGRFTISRDNAKNTVYLQMNSLKPEDTAVYYCAARTTVYRRYGRNYWGQGTQVTVSS”, “high polyreactivity”.
Under “QVQLVESGGGLVQAGGSLRLSCAASGSTFYGYAMGWYRQAPGKERELVAAISSGGRTKYADSVKGRFTISRDTAKNTVYLQMNSLKPEDTAVYYCYVSYLVYRWKFGWSMDYWGQGTQVTLSS” stands “low polyreactivity”; under “QVQLVESGGGLVQAGGSLRLSCAASGSTFYGYAMGWYRQAPGKERELVAAISVRAGITYYADSVKGRFTISRDNAKNTVYLQMNSLKPEDTAVYYCAKDHWTTSYDEGDYWGQGTQVTVSS”, “low polyreactivity”; under “QVQLVESGGGLVQAGGSLRLSCAASGSTFYGYAMGWYRQAPGKERELVAAISWSGASTYYADSVKGRFTISRDNAKNTVYLQMNSLKPDDTAVYYCNKRYRGYFNWPHGYWGQGTQVTVSS”, “high polyreactivity”.
In the case of “QVQLVESGGGLVQAGGSLRLSCAASGSTFYGYAQGWYRQAPRKERELVAAISRTGTTNYADSVKGRFTISRDNAKNTVYLQMNSLKPEVTAVYYCNVRGYEVWYPLAYDYWGQGTQVTVSS”, the “polyreactivity (PSR sort gate)” value is listed as “high polyreactivity”.
Under “QVQLVESGGGLVQAGGSLRLSCAASGSTFYGYTMGWYRQAPGKERELVAAITSGDSTYYADSVKGRFTISRDNAKNTVYLQINSLKPEDTAVYYCATDWDVEYYWTEYYYWGQGTQVTVSS” stands “high polyreactivity”.
Under “QVQLVESGGGLVQAGGSLRLSCAASGSTFYHNAMGWYRQAPGKERELVAAITTSGGSTYYADSVKGRFTISRDNAKNTVYLQMNSLKPEDTAVYYCNVYRPYLAPYDYWGQGTQVTVSS” stands “low polyreactivity”; under “QVQLVESGGGLVQAGGSLRLSCAASGSTFYHNVMGWYLQAPGKERELVASIDTGDSTNYADSVKGRFTISRDNAKNTVYLQMNSLKPEDTAVYYCNADSYPALNKRGYDYWGQGTQVTVSS”, “low polyreactivity”.
Next, “QVQLVESGGGLVQAGGSLRLSCAASGSTFYINAMGWYRQAPGKERELVAAISWGGGSTYYADSVKGRFTISRDNAKNTVYLQMNSLKPEDTAVYYCAKLKGTQPNRYDYWGQGTQVTVSS”: “low polyreactivity”; “QVQLVESGGGLVQAGGSLRLSCAASGSTFYINAMGWYRQAPGKERVLVAAISWSGGSTYYADSVKGRFTISRDNAKNTVYLQMNSLKPEDTAVYYCAADWYLGWSLDYDYWGQGTQVTVSS”: “low polyreactivity”; “QVQLVESGGGLVQAGGSLRLSCAASGSTFYIYAMGWYRQAPGKERELVAAIDWNDGSTYYADSVKARFTISRDNAKNTVYLQMNSLKPEDTAVYYCAAAIYIYRGGTYDYWGQGTQVTVSS”: “high polyreactivity”.
Consider “QVQLVESGGGLVQAGGSLRLSCAASGSTFYIYAMGWYRQAPGKERELVAAISSVGRTSYADSVKGRFTISRDNAKNTVYLQMNSLKPEDTAVYYCAADKVDDSSYVPRTVFRYESDYWGQGTQVTVSS”, for which the “polyreactivity (PSR sort gate)” value is “low polyreactivity”.
On to “QVQLVESGGGLVQAGGSLRLSCAASGSTFYIYAMGWYRQAPGKERELVAAITSRGTITSYADSVKGRFTISRDNAKNTVYLQMNSLKPEDTAVYYCAADYWQDGIAYWYDYWGQGTQVTVSS”, for which the “polyreactivity (PSR sort gate)” value is “low polyreactivity”.
Under “QVQLVESGGGLVQAGGSLRLSCAASGSTFYIYAMGWYRQAPGKERELVAAITWRGGGTYYADSVKGRFTISRDNAKNTVYLQMNSLKPEDTAVYYCNADYPRSHYQYPYNYWGQGTQVTVSS” stands “high polyreactivity”; under “QVQLVESGGGLVQAGGSLRLSCAASGSTFYIYAMGWYRQAPGKERELVARISGSRGSTYYADSVKGRFTISRDNAKNTVYLQMNSLKPEDTAVYYCAADDIYKYYQYYALPSYRYDYWGQGTQVTVSS”, “low polyreactivity”.
Under “QVQLVESGGGLVQAGGSLRLSCAASGSTFYIYGMGWYRQAPGKERELVAAISSSGGRTNYADSVKGRFTISRDNAKNTVYLQMNSLKPEDTAVYYCAARRWQGYAGWYDYWGQGTQVTVSS” stands “high polyreactivity”; under “QVQLVESGGGLVQAGGSLRLSCAASGSTFYIYTMGWYRQAPGKERELVATISWDGGNTYYADSVKGRFTISRDNAKNTVYLQMNSLKPEDTAVYYCARDSSIWSHGSWYDYWGQGTQVTVSS”, “low polyreactivity”; under “QVQLVESGGGLVQAGGSLRLSCAASGSTFYKNAMGWYIQAPGKERELVAAISGSGGRTYYADSVKGRFTISRDTAKNTVYLQMNSLKPEDTAVYYCNAARAYYSLYYGLDYWGQGTQVTVSS”, “high polyreactivity”.
Under “QVQLVESGGGLVQAGGSLRLSCAASGSTFYKYAMGWYRPAPGKERELVATINISGGSTSYADSVKGRFTISRDNAKNTVYLQMNSLKPQDTAVYYSNADAFYLGHDYWGQGTEVTVSS” stands “high polyreactivity”; under “QVQLVESGGGLVQAGGSLRLSCAASGSTFYKYAMGWYRQAPGKERELVAAISASGGSTYYADSVKVRFTISRDNAKNTVYLQMNSLNPEDTAVYYCAKASAYSAYADHDYYWGQGTQVTVSS”, “high polyreactivity”; under “QVQLVESGGGLVQAGGSLRLSCAASGSTFYLNALGGYRQAPGKEREFVAAIDTGTGTYYADSVKGRFTISRDNAKNTVYLQMNRLKPEDTAVYYCAKDDLLVVRNVWFDYWGQGTQVTVSS”, “low polyreactivity”.
For the sequence “QVQLVESGGGLVQAGGSLRLSCAASGSTFYLNAMGWYRQAPGKERELVAAINSGDSTNYADSVKGRFTISRDNAKNSVYLQMNSLKPEDNAVYYCARDRYPSEGDYWGQGTQVTVSS”, the “polyreactivity (PSR sort gate)” value is given as “low polyreactivity”.
Under “QVQLVESGGGLVQAGGSLRLSCAASGSTFYLNAMGWYRQAPGKERELVASITWSGGRTYYADSVKGRFTISRDNAKNTVYLQMNSLKPEDTAVYYCAADPVWGRYIKYDYWGQGTQVTVSS” stands “high polyreactivity”.
Turning to “QVQLVESGGGLVQAGGSLRLSCAASGSTFYLNAMGWYRQEPGKERELVAAISSGGRTYYADSVKGRFTISRDNAKNTVYFQKNSLKPEDTAVYYCAATRLYWKIFYGDGDYWGQGTQVTVSS”, the “polyreactivity (PSR sort gate)” value is reported as “high polyreactivity”.
Regarding “QVQLVESGGGLVQAGGSLRLSCAASGSTFYLNTMGWYRQAPGKERELVASISRSGGTTYYADSVKGRFTISRDNAKNTVYLQMNSLKPEDTAVYYCAKRYYFTHAYSRTFYYWGQGTQVTVSS”, the “polyreactivity (PSR sort gate)” value was “high polyreactivity”.
Next, “QVQLVESGGGLVQAGGSLRLSCAASGSTFYLYAMGWYRQAPGKERELVAAISWSDDTTYYADSVKGRFTISRDNAKNTVYLQMNSLKPEDTAVYYCATVPHYYYDYDYWGQGTQVTVSS”: “low polyreactivity”.
Under “QVQLVESGGGLVQAGGSLRLSCAASGSTFYLYAMGWYRQAPGKERELVAAITRGGTTNYADSVKGRFTISRDNAKNTVYLQMNSLKPEDTAVYYCAKEVTTLLSLYEIVDRDYWGQGTQVTVSS” stands “low polyreactivity”; under “QVQLVESGGGLVQAGGSLRLSCAASGSTFYLYPMGWLRQAPGKERELVAAIRQSGGSTYYADSVKGRFTISRDNAKNTVYLQMNSLKPEDTAVYYCAARPSYRLGQRYYYWGQGTQVTVSS”, “high polyreactivity”.
Next, “QVQLVESGGGLVQAGGSLRLSCAASGSTFYLYTMGWYIQAPGKERELVAAISPSGGSTRYADSVKGRFTISRDNAKNTVYLQMNSLKPEDTAVYYCAARSTVYPRPHERDYWGQGTQVTVSS”: “high polyreactivity”.
Consider “QVQLVESGGGLVQAGGSLRLSCAASGSTFYNNAMGWYRQAPGKERELVAAISNVSTYYADSVKGRFTISRDNAKNTVYLQMNSLKPEDTAVYYCAARGLLWYYSWRYYYWGQGTQVTVSS”, for which the “polyreactivity (PSR sort gate)” value is “low polyreactivity”.
Next, “QVQLVESGGGLVQAGGSLRLSCAASGSTFYNNAMGWYRQAPGKERELVAAISNVSTYYADSVKGRFTISRDNAKNTVYLQMNSLKPEDTAVYYCAARVLLWYYSWRYYYWGQGTQVTVSS”: “low polyreactivity”; “QVQLVESGGGLVQAGGSLRLSCAASGSTFYNNAMGWYRQAPGKERELVAAITASGGRTYYADSVKGRFTISRDNAKNTVYLQMNSLKPEDTAVYYCAADGHAGYPIDEYYYWGQGTQVTVSS”: “high polyreactivity”; “QVQLVESGGGLVQAGGSLRLSCAASGSTFYNNAMGWYRQAPGKERELVATISASSTSTYYADSVKGRFTISRDNAKNTVYLQMNSLKPEDTAVYYCAKDYVHGSTYGYYWYGYDYWAQGTQVTVSS”: “low polyreactivity”.
On to “QVQLVESGGGLVQAGGSLRLSCAASGSTFYNYAMGWYRQAPGKERELVAAISIGGSTYYADSVKGRFTISRDNAKNTVYLQMNSLKPEDTAVYYCAADDGDFYPIDDYWGQGTQVTVSS”, for which the “polyreactivity (PSR sort gate)” value is recorded as “low polyreactivity”.
Under “QVQLVESGGGLVQAGGSLRLSCAASGSTFYNYAMGWYRQAPGKERELVASITWNGGSTYYADSVKGRFTISRDNAKNTVYLQMNSLKPEDTAVYYCAAEWTWTYPYDYWGQGTQVTVSS” stands “low polyreactivity”; under “QVQLVESGGGLVQAGGSLRLSCAASGSTFYPNAMGWYRQAPGKERELVAAISRGTRTKYADSVKGRFTISRDNAKNTVYLQMNSLKPEDTAVYYCAADTGTGLDWGQGTQVTVSS”, “high polyreactivity”.

The values above are taken from the nanobody polyreactivity screen of Harvey et al. (2022).
